Here are results for 5 molecules from publication PMC3711744 (The Journal of neuroscience : the official journal of the …, 2013).

Where two headings read alike, the source gives them in different places.

What all share (test): pull-down
The target in experiment [1] is T1, His-tagged CaMKIIα-FL(M1-H478) (UniProt P11275 1-478).
For experiment [2], the target named is T286-autophosphorylated CaMKIIα (UniProt P11275 1-478, phosphothreonine at 286 (autophosphorylation)).
Experiment [3] deals with T1, His-tagged CaMKIIα-FL(M1-H478). The source holds these as a separate data set.
The next experiment concerns the target GST-CaMKIIα-FL(M1-H478) (UniProt P11275 1-478).

T1 sequence (P11275 whole entry): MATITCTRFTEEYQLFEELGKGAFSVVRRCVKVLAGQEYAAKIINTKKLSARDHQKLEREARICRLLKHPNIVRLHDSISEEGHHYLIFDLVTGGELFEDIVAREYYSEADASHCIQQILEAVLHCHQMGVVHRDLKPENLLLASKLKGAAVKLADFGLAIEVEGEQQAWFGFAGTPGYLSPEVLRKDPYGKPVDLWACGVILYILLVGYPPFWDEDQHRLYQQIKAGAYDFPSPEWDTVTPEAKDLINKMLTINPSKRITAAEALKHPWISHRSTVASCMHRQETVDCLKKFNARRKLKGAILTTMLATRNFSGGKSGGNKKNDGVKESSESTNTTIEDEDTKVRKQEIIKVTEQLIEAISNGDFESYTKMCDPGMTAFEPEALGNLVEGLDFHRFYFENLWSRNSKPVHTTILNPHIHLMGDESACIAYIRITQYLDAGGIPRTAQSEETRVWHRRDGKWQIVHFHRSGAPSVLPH
Chain of T286-autophosphorylated CaMKIIα (P11275 whole entry): as above
Chain of GST-CaMKIIα-FL(M1-H478) (P11275 whole entry): as above

B1: mGluR1a-i (14-amino acid interfering peptide) (peptide)
peptide: KLPCRSNTFLNIFR
B1: in experiment [1], the binding result is on record as “binds”.

B2: GST-mGluR1a-CT1(K841-T1000) (domain or fragment, rat, UniProt P23385 841-1000, looked up)
chain: KPERNVRSAFTTSDVVRMHVGDGKLPCRSNTFLNIFRRKKPGAGNANSNGKSVSWSEPGGRQAPKGQHVWQRLSVHVKTNETACNQTAVIKPLTKSYQGSGKSLTFSDASTKTLYNVEEEDNTPSAHFSPPSSPSMVVHRRGPPVATTPPLPPHLTAEET
Consider B2, for which the binding result in experiment [1] and in experiment [2] was “binds” each time.

B3: GST-mGluR1a-CT-FL(K841-L1199) (domain or fragment, rat, UniProt P23385 841-1199, looked up)
chain: KPERNVRSAFTTSDVVRMHVGDGKLPCRSNTFLNIFRRKKPGAGNANSNGKSVSWSEPGGRQAPKGQHVWQRLSVHVKTNETACNQTAVIKPLTKSYQGSGKSLTFSDASTKTLYNVEEEDNTPSAHFSPPSSPSMVVHRRGPPVATTPPLPPHLTAEETPLFLADSVIPKGLPPPLPQQQPQQPPPQQPPQQPKSLMDQLQGVVTNFGSGIPDFHAVLAGPGTPGNSLRSLYPPPPPPQHLQMLPLHLSTFQEESISPPGEDIDDDSERFKLLQEFVYEREGNTEEDELEEEEDLPTASKLTPEDSPALTPPSPFRDSVASGSSVPSSPVSESVLCTPPNVTYASVILRDYKQSSSTL
Take B3: the binding result in experiment [3] is reported as “binds”.

B4: purified mGluR1a-CT (domain or fragment, rat, UniProt P23385 841-1199, looked up)
chain: B3 chain
For the molecule B4, in the experiment with GST-CaMKIIα-FL(M1-H478), the binding result was “binds”.

B5: GST-mGluR1a-CT1a(K841-N885) (domain or fragment, rat, UniProt P23385 841-885, looked up)
chain: KPERNVRSAFTTSDVVRMHVGDGKLPCRSNTFLNIFRRKKPGAGN
Consider B5, for which, in experiment [3], the binding result was “binds”.
